Results taken from PMC10470402.

Target: S. pombe HT-Gemin2 (S. pombe) (UniProt P0CU08)
Test: pull-down

Sequence of S. pombe HT-Gemin2 (S. pombe) (P0CU08 whole entry): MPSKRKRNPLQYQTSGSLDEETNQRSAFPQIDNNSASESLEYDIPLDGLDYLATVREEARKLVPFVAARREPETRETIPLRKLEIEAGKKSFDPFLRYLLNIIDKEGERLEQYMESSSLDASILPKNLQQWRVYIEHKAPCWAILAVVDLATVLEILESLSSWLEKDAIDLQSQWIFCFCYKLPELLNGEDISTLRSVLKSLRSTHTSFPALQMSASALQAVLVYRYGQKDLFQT

| Substance | percent bound | percent bound (D1/D2 and F/E/G added together) |
| --- | --- | --- |
| S. pombe SmD1/SmD2 subcomplex, HT-tag removed (from UniProt O42661 1-117; O14036 1-115) | 4.1% | 15.1% |
| S. pombe SmF/SmE/SmG subcomplex, HT-tag removed (from UniProt O59734 1-78; Q9USZ3 1-84; O74966 1-77) | 7.4% | 9.2% |
